Measured values from the supplement of paper PMC9170038.

Tested on: MS2 coat protein
Experiment: apparent KD of MS2 coat protein; designed switch direction (-1 OFF switch, 1 ON switch): -1; higher = weaker reporter binding
Procedure, shortened: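 Three titration conditions were used: no input, 200 uM small-molecule ligand, and an oligonucleotide input. In each, SNAP-549-labelled MS2 coat protein was raised from 0.7 or 1.5 nM, doubling, to 3 µM over designed RNA switches transcribed on Illumina chips by stalled E. coli RNA polymerase. Curve fits of normalised cluster fluorescence gave values whose per-design median over clusters is the apparent KD.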

[1] = input ligand: microRNA oligo, concentration not stated
[2] = Eterna round: R95, input ligand: FMN 200 uM
[3] = Eterna round: R95, input ligand: microRNA oligo, concentration not stated
[4] = Eterna round: R95, input ligand: none

Sequence	apparent KD of MS2 coat protein (input ligand: FMN 200 uM) [nM]	apparent KD of MS2 coat protein [1] [nM]	apparent KD of MS2 coat protein (input ligand: none) [nM]	apparent KD of MS2 coat protein [2] [nM]	apparent KD of MS2 coat protein [3] [nM]	apparent KD of MS2 coat protein [4] [nM]
UACAUGAGGAUCACCCAUGUUUUGUCGUGUAUGGUAUUUAUCUAGGAUAUCAAGUUAUUUAAUUAUGAGAAGGAGAAUAUUAAU [JMF's solution 34] (Eterna round: R96, puzzle: Exclusion NG 3)	32.8	26.6	34.5			
AGGUCACAUGAGGAUCACCCAUGUCAGGAUAUCGUCACUGGAGCUUCGGCUCCAGUGACGAGAAGGGACAAUUA [E1/6-A1] (Eterna round: R97, puzzle: Exclusion 1)	499		80.5			
GAUUAUGCAAGCUUUCGGGACAUGAGGAUCACCCAUGUUCGUCUUAUUGAUCUAGGUACGCUGACGUACCUAGAUCU [JL-sv1-2.33 Brourd mod] (puzzle: Sensor v3, turn-off variant 1)				17	65.2	
GGUGCACAUGAGGAUCACCCAUGUCAGGAUAUGUUACCACGUUACGAUCGAGUGACGAGCAGAAGGGACUGCAU [Eternabot (L2) Solution 68] (Eterna round: R97, puzzle: Exclusion 1)	39.4		29.6			
CUGAGGUAGCGGUCCUAUGACAUGAGGAUCACCCAUGUACCUUGCUUCGAGCUUUUUGCUCGUCUUAUGAUUCUCAG [Mat - Sensor v3 - turn-off var 1 - JL Mod - D32] (puzzle: Sensor v3, turn-off variant 1)				114	405	162
UAUGGUUAAGUCAGGAUAUACAUACAGAUAUCUGAGUAGAAGGGACAUGAGGAUCACCCAUGUAUGGUAGUGUU [Ex4 #54] (Eterna round: R97, puzzle: Brourd's mod of Exclusion 4)	169		76.3			
CCGAUGUCAGGAUAUCGUGCAUACAACGAAAGUUCUAUGUGCGAGAAGGGACAUGAGGAUCACCCAUGUUACGG [Omei Ex4 A2] (Eterna round: R97, puzzle: Exclusion 4)	131		465			
UUUUUCAAGCCAGAUCCUCACAUGAGGAUCACCCAUGUGCUCGUCUGUUUUCGCACUAUCACGUUUGUGAUAGUGCU [Level Boss var2-11] (puzzle: Sensor v3, turn-off variant 1)				297	17.7	307
UUUGUCUGUGUGAGGAUAUACUUUGUUUGGUCGUUGUAGAAGGCACAUGAGGAUCACCCAUGUAGUUUGUUGUG [JR_BME4_Sub014] (puzzle: Brourd's mod of Exclusion 4)					20.3	
UUUCGGUCAGGAUAUCCCGUACUACUAGCCGCGACUUACGAGGAGAAGGGACAUGAGGAUCACCCAUGUGCGCU [Colors] (Eterna round: R97, puzzle: Exclusion 4)	16.2		14.7			
UGCGAAGAGUGAGGAUAUGUGCGACAAAGUUGCACAGAAGGCACAUGAGGAUCACCCAUGUAAGCUAGGUCGAAAGACCUAGCG [Omei Exc(NG)1 Av5] (Eterna round: R96, puzzle: Exclusion NG 1)	106	40.6	43.4			
CAUUAUGUUGAGGAUAUGCGCCGGAAAACUGACGCAGAAGGCGACACAUGAGGAUCACCCAUGUCAGUUCGCGA [salish99_ex6_r004_424] (Eterna round: R97, puzzle: Exclusion 6)	10.6		10.6			
UUUUUUGUUGUGAGGAUAUCGUAUUUUUUUUGUUACGAGAAGGCACAUGAGGAUCACCCAUGUUUUUUGAUGUU [JR_BMOE4_Sub065] (puzzle: Brourd's mod of Exclusion 4)					28.4	
GAAAAGGUAGGAUAUACGAAAAAAAAGGGUAGAAAAAAAAUACAUGAGGAUCACCCAUGUAGAAGGACCAAAAG [salish99_ex2_r3_060] (puzzle: Exclusion 2)				24.4	23.3	22.5
